Test results as given in US20250320302A1 (EVOTEC INTERNATIONAL, published 2025).
Like-named read-outs stand apart in the source and are kept apart here.

How the values were obtained:
Assay in all cases: cell-based or functional assay
[1] = target: human IFNγ receptor on HEK-Blue IFN-γ cells (human)
[2] = target: T1, human CD40 (human, UniProt P25942 21-277)
[3] = target: human IFNγ receptor on HEK-Blue IFN-γ cells (human); remark: listed apart in the source
[4] = target: T1, human CD40; remark: listed apart in the source
[5] = target: human IFNγ receptor on HEK-Blue IFN-γ cells (human); remark: listed apart in the source
[6] = target: human IFNλ receptor on HEK-Blue IFN-λ cells (human)

T1 sequence (P25942 21-277): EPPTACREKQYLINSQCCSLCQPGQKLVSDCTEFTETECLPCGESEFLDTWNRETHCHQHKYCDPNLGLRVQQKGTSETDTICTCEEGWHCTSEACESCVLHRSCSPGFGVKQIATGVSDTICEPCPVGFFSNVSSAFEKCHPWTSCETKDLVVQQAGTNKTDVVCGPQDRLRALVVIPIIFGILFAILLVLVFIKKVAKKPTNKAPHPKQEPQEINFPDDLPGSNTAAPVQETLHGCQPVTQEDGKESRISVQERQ

| Binder | IFNγ EC50 (HEK-Blue IFNγ reporter cells) [1] [ng/mL] | CD40 EC50 (HEK-Blue CD40L NFκB-SEAP reporter cells) [2] [ng/mL] | IFNγ EC50 (HEK-Blue IFNγ reporter cells) [3] [ng/mL] | CD40 EC50 (HEK-Blue CD40L NFκB-SEAP reporter cells) [4] [ng/mL] | IFNγ EC50 (HEK-Blue IFNγ reporter cells) [5] [ng/mL] | IFNλ EC50 (HEK-Blue IFNλ reporter cells) [6] [ng/mL] |
| --- | --- | --- | --- | --- | --- | --- |
| IFA125 (antibody, human IgG2, kappa) heavy: QVQLVESGGGVVQPGKSLRLSCAASGFTFSSNGIHWVRQAPGKGLEWVAVIWSDGSNKFYADSVKGRFTISRDNSKNTLYLQMNSLRAEDTAVYYCARASGSGSYYNFFDYWGQGTLVTVSSASTKGPSVFPLAPCSRSTSESTAALGCLVKDYFPEPVTVSWNSGALTSGVHTFPAVLQSSGLYSLSSVVTVPSSNFGTQTYTCNVDHKPSNTKVDKTVERKCCVECPPCPAPPVAGPSVFLFPPKPKDTLMISRTPEVTCVVVDVSHEDPEVQFNWYVDGVEVHNAKTKPREEQFNSTFRVVSVLTVVHQDWLNGKEYKCKVSNKGLPAPIEKTISKTKGQPREPQVYTLPPSREEMTKNQVSLTCLVKGFYPSDIAVEWESNGQPENNYKTTPPMLDSDGSFFLYSKLTVDKSRWQQGNVFSCSVMHEALHNHYTQKSLSLSPGGGGGSGGGGSGGGGSGGGGSQDPYVKEAENLKKYFNAGHSDVADNGTLFLGILKNWKEESDRKIMQSQIVSFYFKLFKNFKDDQSIQKSVETIKEDMNVKFFNSNKKKRDDFEKLTNYSVTDLNVQRKAIHELIQVMAELSPAAKTGKRKRSQMLFRGRRASQ light: not shown | 0.142 | 8.8 | – | – | – | – |
| IFA43 (antibody, human IgG2, kappa) heavy: not shown light: DIQMTQSPSSVSASVGDRVTITCRASQGIYSWLAWYQQKPGKAPNLLIYTASTLQSGVPSRFSGSGSGTDFTLTISSLQPEDFATYYCQQANIFPLTFGGGTKVEIKRTVAAPSVFIFPPSDEQLKSGTASVVCLLNNFYPREAKVQWKVDNALQSGNSQESVTEQDSKDSTYSLSSTLTLSKADYEKHKVYACEVTHQGLSSPVTKSFNRGEC | – | – | < 0.001 | 50.8 | < 0.01 | – |
| IFA45 (antibody, human IgG2, kappa) heavy: not shown light: DIQMTQSPSSVSASVGDRVTITCRASQGIYSWLAWYQQKPGKAPNLLIYTASTLQSGVPSRFSGSGSGTDFTLTISSLQPEDFATYYCQQANIFPLTFGGGTKVEIKRTVAAPSVFIFPPSDEQLKSGTASVVCLLNNFYPREAKVQWKVDNALQSGNSQESVTEQDSKDSTYSLSSTLTLSKADYEKHKVYACEVTHQGLSSPVTKSFNRGEC | – | – | – | 25.8 | – | < 0.001 |
